Laboratory results reported in patent US20220403048A1, “BINDING MOLECULES TO ARGINASE II [ARG2]” (Cancer Research Technology Limited, priority 2019, published 2022).

T1: ARG2 (Homo sapiens, UniProt P78540)
T1 sequence (P78540 23-354): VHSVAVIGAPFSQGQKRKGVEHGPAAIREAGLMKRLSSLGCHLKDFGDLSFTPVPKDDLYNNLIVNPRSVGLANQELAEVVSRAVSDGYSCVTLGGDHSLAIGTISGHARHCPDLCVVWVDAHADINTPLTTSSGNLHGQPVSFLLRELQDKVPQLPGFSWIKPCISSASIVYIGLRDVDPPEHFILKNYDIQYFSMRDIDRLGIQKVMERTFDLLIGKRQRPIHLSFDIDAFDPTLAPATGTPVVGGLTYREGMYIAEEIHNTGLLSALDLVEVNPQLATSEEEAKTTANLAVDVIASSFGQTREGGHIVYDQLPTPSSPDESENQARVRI

T2: recombinant human trimeric ARG1 enzyme (Homo sapiens, UniProt P05089)
T2 construct: Avi tag (N); His10 (after a GGG linker) (C); made in house; host or cells: E. coli BL21 (DE3)
T2 sequence (P05089 with tags, fused parts or gaps): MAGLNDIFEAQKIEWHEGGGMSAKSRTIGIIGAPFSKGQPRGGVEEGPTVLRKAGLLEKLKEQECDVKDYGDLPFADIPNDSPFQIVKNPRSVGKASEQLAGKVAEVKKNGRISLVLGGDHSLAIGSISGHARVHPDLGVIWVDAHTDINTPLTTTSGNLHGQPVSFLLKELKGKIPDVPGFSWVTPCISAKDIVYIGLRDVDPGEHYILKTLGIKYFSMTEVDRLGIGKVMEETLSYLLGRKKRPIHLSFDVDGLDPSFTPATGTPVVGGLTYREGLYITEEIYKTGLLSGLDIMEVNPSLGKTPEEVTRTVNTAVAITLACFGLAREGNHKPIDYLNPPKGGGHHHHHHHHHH

B1: C0020065: anti-ARG2 antibody, alternate lead isolation clone, VH SEQ ID NO: 2, VL SEQ ID NO: 7 (antibody, listed as Homo sapiens, V domains shown)
VH: GVNLRESGGGVVQPGRSLRLSCAASGFTFSSYAMHWVRQAPGKGLEWVAVISYDGSNKYYVDSVKGRFTISRDNSKNTLYLQMNSLRAEDTAVYYCARDSSQLWFDYWGRGTLVTVSS
VL: QSVVTQPPSVSGAPGQRVTISCTGSSSNIGTGYDVHWYQQLPGTAPKLLIYGNSNRPSGVPDRFSGSKSGTSASLAITGLQAEDEADYYCQSYDSSLSGSVVFGGGTQLTVL
modifications: C0020065
B2: C0021158 IgG: anti-ARG2 antibody, VH SEQ ID NO: 282, VL SEQ ID NO: 287; IgG and Fab versions carry these sequences (antibody, listed as Homo sapiens, V domains shown)
VH: EVQLLESGGGLVQPGGSLRLSCAASGFTFRYEVAAWVRQAPGKGLEWVSAISGPIPKGYYADSVKGRFTISRDNSKNTLYLQMNSLRAEDTAVYYCARLRADLGLYMDLWGRGTLVTVSS
VL: QSVLTQPPSVSAAPGQKVTISCSGSSSNIGNHYVSWYQQLPGTAPKLLIYDNSERTAGVPDRFSGSKSGTSATLGITGLQTGDEADYYCGTWDELTSNLVFGGGTKLTVL
modifications: C0021158 IgG

Tests used:
ARG2 [1] = target: T1, ARG2; assay: T cell proliferation assay (BrdU, 72 hours) with exogenous ARG2; assay type: cell-based; parameters: human ARG2 (aa23-354); His10 (C); made in house; host or cells: E. coli BL21 (DE3)
Procedure: (§1) This assay served to provide in vitro evidence of functional efficacy for each antibody.
(§2) Briefly, Leukocyte cones (NHS Blood and Transplant, Watford, UK) underwent Ficoll Plaque (GE, Sweden; Cat: 17-1440-02) gradient separation, PBMC's were extracted and pan T cell population isolated by negative selection using the Human T Cell Enrichment Kit (Stemcell Technologies, France; Cat: 19051) according to the manufacturer's instructions.
(§3) 40000 cells/well were seeded in complete growth media (RMPI 1640, 5% Human Serum Albumin) into a 96 well clear TC treated microplate (Greiner-Bio One, Germany; Cat: 655180). T Cells were activated by the addition of ImmunoCult CD3/CD28 (Stemcell Technologies, France; Cat: 10971) at a dilution of 1:40 directly into wells and the plate incubated 37° C., 5% CO2 for 45 minutes.
(§4) To determine EC50's of test antibodies, a dilution series was created in sterile TBS at 8× the final assay concentration was added to the assay plate containing cells. Plate was incubated for 30 minutes at 37° C., 5% CO2.
(§5) ARG2 was added to relevant wells of the plate at a final concentration of 15 μg/ml. The equivalent volume of ARG2 vehicle and test antibody vehicle was added to relevant control wells. […]
(§6) Calculated data was expressed as % of control (Equation 3) and graphical plots were constructed using a four parameter fit and EC50's determined using model 205 in XLFit (IDBS, UK). […]

ARG2 [2] = target: T1, ARG2; assay: as above; assay type: cell-based; details: In Absence of rhARG2
Procedure: as §1, §2, §3, §4, §5, §6

[3] = target: T2, recombinant human trimeric ARG1 enzyme; assay: Direct binding HTRF assay, human trimeric ARG1; details: purified scFv, FIG. 1B
ARG2 [4] = target: T1, ARG2; assay: Isothermal titration calorimetry of BEC with ARG2 and ARG2-C0021158 fab complex; assay type: binding; parameters: human ARG2 (aa23-354); His10 (C); made in house; host or cells: E. coli BL21 (DE3); details: 20 μM ARG2 and 20 μM C0021158 fab, 0.50 mM BEC titrated, 25° C.
Procedure: To assess the accessibility of the ARG2 active site, we analysed binding of the ARG2 small-molecule inhibitor S-(2-Boronoethyl)-L-cysteine hydrochloride (BEC) by isothermal titration calorimetry (ITC) using a VP ITC (MicroCal) set to 25° C. (FIG. 15B). BEC is an arginine analogue that binds to the active site of ARG2. First, volumes of 10 μl of a solution containing 0.75 mM BEC were added to 20 μM of ARG2 (monomer concentration). The resulting thermogram was integrated using NITPIC and the binding isotherm was fitted with SEDPHAT using a one-binding site model. In a second experiment, volumes of 10 μl of 0.50 mM BEC were added to a solution containing a pre-incubated 1:1 molar mixture of C0021158 fab and ARG2 (both 20 μM, incubation 1 h at 20° C.).

Molecule | EC50 (ARG2 [1]; In Presence of rhARG2) | Maximum % Proliferation (ARG2 [1]; In Presence of rhARG2, NHLA value at 0.444 mM) | EC50 (ARG2 [2]) | Maximum % Proliferation (ARG2 [2]) | binding to biotinylated recombinant human trimeric ARG1 enzyme [3] | effect on binding of BEC to ARG2 (ITC) (ARG2 [4])
B1 | > 2000 nM | 49% | < 0.8 nM | 82% | no binding | –
B2 | – | – | – | – | – | prevents BEC from binding
